Patent US7556938B1, “Nucleic acids encoding potassium channel interactors” (Millennium Pharmaceuticals, Inc., priority 1998, dated 2009)

Experiments:
rKv4.3 = test: Two-electrode voltage clamp of Kv4.3 currents in Xenopus oocytes co-injected with KChIP cRNA; format: cell-based, rat
Protocol: (§1) Frogs underwent no more than two surgeries and surgeries were performed by well established techniques. Frogs were anesthetized with ice. Total cRNA (1-10 ng) was injected into stage IV Xenopus oocytes that were harvested the previous day. The Xenopus oocytes were incubated in ND96 containing (in mM) 96 NaCl, 2 KCl, 1.8 CaCl2, 1 MgCl2, 5 HEPES, pH 7.6, plus (Gentamycin 50 μg/ml) at 18° C. Xenopus oocytes were studied 3-7 days after injection. The two-electrode voltage-clamp recordings were performed in ND96 solution using a TURBO TEC 03 Clamp Amplifier (ALA Scientific Instruments, Westbury, N.Y.). Both electrodes were filled with 3 M KCl and had electrode resistances ranging from 0.2-1 MOhm. The current signals were filtered at 1000 Hz before transferred on a PC (Gateway, Calif.) using the PULSE software (HEKA, Germany).
(§2) To investigate whether the modulatory effects of these KChIPs are specific for Kv4 channels, KChIP1 was coexpressed with Kv1.4 and Kv2.1 in Xenopus oocytes. Xenopus oocytes were injected with 1-3 ng/oocyte of cRNA which was prepared using standard in vitro transcription techniques (Sambrook et al. 1989. Molecular Cloning: a laboratory manual, Cold Spring Harbor Press). Currents in Xenopus oocytes were measured with a two-electrode voltage clamp. […] As a final control for the KChIP effects and to verify that the KChIPs' effects on Kv4 currents are independent of expression system, the above kinetic analyses were repeated after expressing Kv4.3 and KChIP mRNAs in Xenopus oocytes. The effects KChIP1 on for Kv4.3 in the Xenopus oocyte system were strikingly similar to those on Kv4.2 in CHO cells (Table 1).

hKv1.4 = hKv1.4 (Homo sapiens, UniProt P22459); test: Two-electrode voltage clamp of Kv1.4 currents in Xenopus oocytes coexpressing 1v; format: cell-based
Chain of hKv1.4 (P22459 whole entry): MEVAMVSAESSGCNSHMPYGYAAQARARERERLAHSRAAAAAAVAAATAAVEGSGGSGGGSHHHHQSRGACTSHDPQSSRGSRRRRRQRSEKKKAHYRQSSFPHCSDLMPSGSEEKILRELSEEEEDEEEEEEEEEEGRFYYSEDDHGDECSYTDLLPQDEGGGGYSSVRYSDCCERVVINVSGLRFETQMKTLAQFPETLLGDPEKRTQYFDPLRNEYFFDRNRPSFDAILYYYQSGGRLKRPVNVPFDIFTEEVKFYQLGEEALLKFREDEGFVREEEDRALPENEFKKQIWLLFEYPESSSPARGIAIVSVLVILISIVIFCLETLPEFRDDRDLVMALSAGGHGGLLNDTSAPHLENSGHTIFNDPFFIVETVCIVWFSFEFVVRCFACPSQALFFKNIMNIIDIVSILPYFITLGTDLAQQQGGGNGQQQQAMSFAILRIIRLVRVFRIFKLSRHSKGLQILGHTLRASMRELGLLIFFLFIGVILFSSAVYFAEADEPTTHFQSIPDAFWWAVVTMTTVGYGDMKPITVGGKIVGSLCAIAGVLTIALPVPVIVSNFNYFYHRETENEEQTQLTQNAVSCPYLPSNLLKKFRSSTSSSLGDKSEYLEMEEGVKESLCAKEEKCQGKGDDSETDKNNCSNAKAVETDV
Protocol: as §1, §2

[1] = Kv4.3 co-expressed with the KChIP

Chain of rKv4.3 (Q62897 1-487 limits assumed): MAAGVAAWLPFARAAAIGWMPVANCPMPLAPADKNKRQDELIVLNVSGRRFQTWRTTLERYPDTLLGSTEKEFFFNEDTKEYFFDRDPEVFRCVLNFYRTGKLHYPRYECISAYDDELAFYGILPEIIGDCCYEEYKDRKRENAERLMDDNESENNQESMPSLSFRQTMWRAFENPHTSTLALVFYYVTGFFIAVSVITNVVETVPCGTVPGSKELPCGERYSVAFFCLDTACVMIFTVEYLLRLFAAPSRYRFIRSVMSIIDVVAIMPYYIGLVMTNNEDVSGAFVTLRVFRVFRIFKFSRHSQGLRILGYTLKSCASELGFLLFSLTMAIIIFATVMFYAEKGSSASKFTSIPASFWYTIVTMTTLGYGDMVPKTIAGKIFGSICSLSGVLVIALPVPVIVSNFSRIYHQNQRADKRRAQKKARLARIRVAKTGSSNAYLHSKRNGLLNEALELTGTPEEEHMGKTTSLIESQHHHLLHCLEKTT

B1: KChIP1: Potassium channel interacting protein 1v, a Ca2+-binding protein that binds and modulates Kv4 channels (protein)
chain: MPARVLLAYPGTEMLTQGESEGLQTLGIVVVLCSSLKLLHYLGLIDLSDDKIEDDLEMTMVCHRPEGLEQLEAQTNFTKRELQVLYRGFKNECPSGVVNEETFKQIYAQFFPHGDASTYAHYLFNAFDTTQTGSVKFEDFVTALSILLRGTVHEKLRWTFNLYDINKDGYINKEEMMDIVKAIYDMMGKYTYPVLKEDTPRQHVDVFFQKMDKNKDGIVTLDEFLESCQEDDNIMRSLQLFQNVM
B1 was tested, and the “Inactivation time constant (ms ± SEM)” value (rKv4.3; [1]) was 112 ± 3 ms, the “Peak amplitude (μA ± SEM)” value (rKv4.3; [1]) was 59 ± 5 μA and the “Inactivation time constant (ms, at 50 mV)” value (rKv4.3; rKv4.3 + KChIP1, at 50 mV) was 135.0 ± 15.1 ms. For the same molecule, the “Peak Current” value (rKv4.3; rKv4.3 + KChIP1, at 50 mV, unit μA printed in cell) was 18.1 μA* ± 3.8, the “fold increase of inactivation time constant of Kv4.3” value (rKv4.3; versus Kv4.3 alone) was about 2 fold and the “effect on Kv1.4 currents” value (hKv1.4) was “did not appear to have any effect”. For the same molecule, the “Activation V1/2 (mV)” value (hKv1.4; hKv1.4 + 1v) was −20.9 mV, the “Steady-state Inactivation V1/2 (mV)” value (hKv1.4; hKv1.4 + 1v) was −47.5 mV and the “Inactivation time constant (ms, at 50 mV)” value (hKv1.4; hKv1.4 + 1v, at 50 mV) was 58.2 ± 6.6 ms. For the same molecule, the “Peak Current (μA/cell at 50 MV)” value (hKv1.4; hKv1.4 + 1v, at 50 mV) was 6.5 ± 0.64 μA/cell.
